The data set concerns the molecule itself. Description: crystal structure; AtHPPD-HPPA complex, hanging drop vapor diffusion, with CoCl2 and HPPA; reservoir 36% (w/v) PEG 400, 0.1 M NaCl, 0.1 M sodium acetate pH 5.0, 18°C; space group P 21, four molecules per asymmetric unit.

B1: Arabidopsis thaliana 4-hydroxyphenylpyruvate dioxygenase (enzyme, UniProt P93836 1-445, looked up)
chain: MGHQNAAVSENQNHDDGAASSPGFKLVGFSKFVRKNPKSDKFKVKRFHHIEFWCGDATNVARRFSWGLGMRFSAKSDLSTGNMVHASYLLTSGDLRFLFTAPYSPSLSAGEIKPTTTASIPSFDHGSCRSFFSSHGLGVRAVAIEVEDAESAFSISVANGAIPSSPPIVLNEAVTIAEVKLYGDVVLRYVSYKAEDTEKSEFLPGFERVEDASSFPLDYGIRRLDHAVGNVPELGPALTYVAGFTGFHQFAEFTADDVGTAESGLNSAVLASNDEMVLLPINEPVHGTKRKSQIQTYLEHNEGAGLQHLALMSEDIFRTLREMRKRSSIGGFDFMPSPPPTYYQNLKKRVGDVLSDDQIKECEELGILVDRDDQGTLLQIFTKPLGDRPTIFIEIIQRVGCMMKDEEGKAYQSGGCGGFGKGNFSELFKSIEEYEKTLEAKQLVG
notes: 4-hydroxyphenylpyruvate dioxygenase, Arabidopsis thaliana, UniProtKB P93836, full-length protein in pET15b; Crystallised with cobalt(II) chloride and the substrate HPPA; also called AtHPPD; HPPD; source: E. coli BL21 (DE3), purified (Ni-NTA, anion exchange, size exclusion chromatography)
Regarding B1, the binding result is on record as “binds”.

For the origin of these results see paper PMC6750108, “Crystal Structure of 4-Hydroxyphenylpyruvate Dioxygenase in Complex with Substrate Reveals a New Starting Point for Herbicide Discovery” (Research, 2019).
